Tests used:
[1] = system: W1G2 peptide; assay type: binding
Protocol: (§1) With regard to surface plasmon resonance (SPR), SPR data was collected by loading a streptavidin chip with the target biotinylated peptides in each of the four channels, and then flowing the protein over the chip at each concentration for 180 seconds before washing with 50 mM Tris-HCl, pH 8.0, 300 mM NaCl, 1 mM DTT, 5% glycerol buffer for 180 seconds. […] The four channels were used such that the negative control peptide (A1G2) was in channel 1, F1G2 in channel 2, W1G2 in channel 3, and Y1G2 in channel 4. The negative control peptide channel was used as a baseline for subtraction, which accommodates both any non-specific binding and refractive index change. A steady state response at each concentration was plotted and fit to calculate the KD, while the resonance units vs. time was used to calculate a koff for each mutant protein with each peptide.
(§2) Regarding characterization of the ClpS mutant protein binding kinetics, for peptide sequencing via some recently proposed methods reagents can bind peptides affixed to a surface. Two A. tumefaciens ClpS2 protein variants (V2, described above, and V1) were expressed and purified from E. coli. […] The binding properties of each variant were analyzed using surface plasmon resonance (SPR).

[2] = system: Y1G2 peptide; experiment: SPR, peptide on streptavidin chip, ClpS2 variant protein in solution; assay type: binding
Protocol: as §1, §2

[3] = system: F1G2 peptide; experiment: as above; assay type: binding; conditions: for specificity between N-terminal Phe and Trp, in words: from SPR binding data
Protocol: as §1, §2

[4] = target: T1, W1G2 peptide (Agrobacterium fabrum, UniProt Q8UD95, E37S/P35C/R36P); experiment: flow cytometry of yeast displaying ClpS proteins; assay type: binding; set-up: factor Xa cleavage site (N); expressed in transfected cells; host or cells: Saccharomyces cerevisiae EBY100, pCTCON2 library clone; conditions: yeast-displayed protein
Protocol: After two rounds of MACs selection, the library was sorted by flow cytometry. […] A typical reaction contained 100 μL of cells (containing approximately 10^6 cells), 10 μL of peptide at a concentration between 10 nM to 10 μM, and 25 μL of a master mix containing 2 μL of an anti-myc antibody, 4 μL of the SAPE (streptavidin, R-phycoerythrin conjugate—1 mg/mL) and 19 μL of PBS/BSA for each sample.
Cells were washed with PBS/BSA and sorted using a FACS Aria cytometer and collected in 1 mL of SD-CAA media. The number of cells that bound the peptide improved with each round and were sorted with sequentially lower concentrations of peptide to increase the stringency of the selection. […]
With regard to directed evolution of ClpS, random mutagenesis and screening was used to select proteins with higher affinity binding to the target NAA. In subsequent steps, specific residues were determined from initial screens with a targeted mutagenesis step. […] Using FACS, we assessed the affinity of each mutant for the N-terminal amino acid on the target peptide based on which quadrant the fluorescent signal fell into as shown in FIG. 15. […] If there is also a high fluorescence signal along the x-axis (streptavidin-PE) then the peptide is presumably bound to the protein variant, and the signal will appear in Q2. […]

[5] = thermal stability by intrinsic protein fluorescence; assay type: physicochemical; conditions: compared with wild-type and V1
Protocol: The thermal stability of the variants was assessed. Each variant was loaded in 3×PBS at approximately 1 mg/mL concentration in capillary tubes and the intrinsic protein fluorescence recorded at 330 nm and 350 nm while heating the sample over a 35-95° C. at a rate of […].

[6] = target: T1, W1G2 peptide; assay type: binding; set-up: His6 (N); TEV protease cleavage site (N); made in house; host or cells: BL21 Escherichia coli; conditions: SPR
Protocol: as §1, §2

[7] = system: Leu NAA peptide; experiment: yeast/peptide colorimetric pull-down assay; assay type: binding; conditions: yeast-displayed protein
Protocol: (§3) Incubation and wash steps were repeated.

[8] = system: F1G2 peptide; experiment: yeast/peptide colorimetric pull-down assay; assay type: binding; conditions: yeast-displayed protein
Protocol: as §3

[9] = system: Tyr NAA peptide; experiment: yeast/peptide colorimetric pull-down assay; assay type: binding; conditions: yeast-displayed protein
Protocol: as §3

[10] = relative specificity factor, ratio of binding affinities

B1: A. tumefaciens ClpS2 [Cys34 Pro35 Ser36] (protein, listed as Escherichia coli)
chain: SDSPVDLKPKPKVKPKLERPKLYKVMLLNDDYTCPSFVTVVLKAVFRMSEDTGRRVMMTAHRFGSAVVVVCERDIAETKAKEATDLGKEAGFPLMFTTEPEE
notes: ClpS2 variant, native residues 34-36 ProArgGlu mutated to CysProSer
[1]; from SPR dissociation curves
  KOFF Trp: 0.03 s⁻¹
[1]; in vitro surface binding assays / SPR
  affinity for N-terminal Trp relative to wild-type, in words: greater affinity
[1]; [10]
  Selectivity for Trp, Trp/Phe: 0.76
  Selectivity for Trp, Trp/Trp: 1.0
  Selectivity for Trp, Trp/Tyr: 0.08
[1]; steady state, peptide on surface, 0 to 50 μM protein, read-out: KD Trp
  Kd: 2.8 ± 0.3 µM
[2]; from SPR dissociation curves
  KOFF Tyr: 0.05 s⁻¹
[2]; [10]
  Selectivity for Tyr, Tyr/Phe: 9.82
  Selectivity for Tyr, Tyr/Trp: 12.91
  Selectivity for Tyr, Tyr/Tyr: 1.0
[2]; steady state, peptide on surface, 0 to 50 μM protein, read-out: KD Tyr
  Kd: 36.1 ± 4.4 µM
[3]; SPR
  dissociation rate slowed over wild-type, Phe: 27.9 fold
[3]
  specificity between N-terminal Phe and Trp, in words: more specific for Phe over Trp than the wild-type protein
[3]; listed as CysProSer variant
  specificity between N-terminal Phe and Trp, in words: selectively bound to Trp over Phe
[3]; from SPR dissociation curves
  KOFF Phe: 0.03 s⁻¹
[3]; in vitro surface binding assays
  affinity for N-terminal Phe relative to wild-type, in words: greater affinity
[3]; [10]
  Selectivity for Phe, Phe/Phe: 1.0
  Selectivity for Phe, Phe/Trp: 1.32
  Selectivity for Phe, Phe/Tyr: 0.10
[3]; steady state, peptide on surface, 0 to 50 μM protein, read-out: KD Phe
  Kd: 3.7 ± 0.3 µM
[4]
  affinity for W1G2 peptide compared to wild-type: improved affinity
[5]
  thermal stability: not as thermally stable
[6]
  decrease in KD for W1G2 peptide compared to wild-type: 6.6 fold
  dissociation rate slowed over wild-type, Trp: 51.3 fold
[7]
  binding to Leu: increased affinity
[8]
  affinity for F1G2 peptide compared to wild-type: increased binding affinity
[9]
  binding affinity to Tyr compared to wild-type: increased binding affinity
